Results reported in article PMC4500674 (Archives of biochemistry and biophysics, 2015).

Biological target: T1, human Mia40, wild type, short linker form (human, UniProt Q8N4Q1 1-142)
T1 sequence: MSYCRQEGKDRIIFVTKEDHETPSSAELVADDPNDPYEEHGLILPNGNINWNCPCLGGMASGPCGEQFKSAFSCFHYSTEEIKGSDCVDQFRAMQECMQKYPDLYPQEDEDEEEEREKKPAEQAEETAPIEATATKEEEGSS
Assay: stopped-flow fluorescence kinetics

B1: reduced bovine pancreatic ribonuclease A (natural protein, UniProt P61823 27-150, looked up)
chain: KETAAAKFERQHMDSSTSAASSSNYCNQMMKSRNLTKDRCKPVNTFVHESLADVQAVCSQKNVACKNGQTNCYQSYSTMSITDCRETGSSKYPNCAYKTTQANKHIIVACEGNPYVPVHFDASV
Kd: 10.4 ± 0.2 µM
